The supplement of paper PMC10567573

B1: RIT1 (parent)
chain: FHALVREIRRKEKEAVLAMEKKSK

Variants of: B1
Assay: protein stability index of a GFP-peptide fusion (GPS, HEK-293T) (PSI 1-6); higher = more stable
Conditions: c terminus: a fixed tail appended
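Also: lentivirally expressed fusions sorted by FACS into six bins by GFP to DsRed ratio, PSI derived from sequencing read proportions per bin multiplied by bin number.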

Variant	protein stability index
FHALVREISRKEKEAVLAMEKKSK [R9S]	1.85
FHALVREINRKEKEAVLAMEKKSK [R9N]	2.23
FHALVREIVRKEKEAVLAMEKKSK [R9V]	2.42
FHALVREIKRKEKEAVLAMEKKSK [R9K]	1.77
FHALVREIMRKEKEAVLAMEKKSK [R9M]	2.03
FHALVREILRKEKEAVLAMEKKSK [R9L]	2.12
FHALVREIPRKEKEAVLAMEKKSK [R9P]	2.8
FHALVREITRKEKEAVLAMEKKSK [R9T]	1.64
FHALVREIWRKEKEAVLAMEKKSK [R9W]	2.02
FHALVREIQRKEKEAVLAMEKKSK [R9Q]	2.5
FHALVREIHRKEKEAVLAMEKKSK [R9H]	1.54
FHALVREIYRKEKEAVLAMEKKSK [R9Y]	2.09
FHALVREIIRKEKEAVLAMEKKSK [R9I]	2
FHALVREIRRKEKEADLAMEKKSK [V16D]	1.3
FHALVREIRRKEKEAKLAMEKKSK [V16K]	1.81
FHALVREIRRKEKEATLAMEKKSK [V16T]	1.57
FHALVREIRRKEKEARLAMEKKSK [V16R]	2.69
FHALVREIRRKEKEASLAMEKKSK [V16S]	2.64
FHALVREIRRKEKEAWLAMEKKSK [V16W]	2.27
FHALVREIRRKEKEAGLAMEKKSK [V16G]	1.7
FHALVREIRRKEKEAQLAMEKKSK [V16Q]	2.22
FHALVREIRRKEKEALLAMEKKSK [V16L]	2.05
FHALVREIRRKEKEAHLAMEKKSK [V16H]	2.47
FHALVREIRRKEKEAPLAMEKKSK [V16P]	2.62

Variant	protein stability index
FHALVREIRRKEKEAILAMEKKSK [V16I]	1.36
FHALVREIRRKEKEAALAMEKKSK [V16A]	2.26
FHALVREIRRKEKEAYLAMEKKSK [V16Y]	1.95
FHALVREIRRKEKEAELAMEKKSK [V16E]	2.59
FHALVREIRRKEKEANLAMEKKSK [V16N]	1.42
FHALVREIRRKEKEAMLAMEKKSK [V16M]	1.66
FHALVREIRRKEKEAFLAMEKKSK [V16F]	2.45
FHALVREIRDKEKEAVLAMEKKSK [R10D]	1.94
FHALVREIRSKEKEAVLAMEKKSK [R10S]	1.59
FHALVREIRMKEKEAVLAMEKKSK [R10M]	2.19
FHALVREIRVKEKEAVLAMEKKSK [R10V]	2.29
FHALVREIRAKEKEAVLAMEKKSK [R10A]	3.88
FHALVREIRFKEKEAVLAMEKKSK [R10F]	4.17
FHALVREIRWKEKEAVLAMEKKSK [R10W]	1.75
FHALVREIRHKEKEAVLAMEKKSK [R10H]	2.18
FHALVREIRQKEKEAVLAMEKKSK [R10Q]	1.36
FHALVREIRNKEKEAVLAMEKKSK [R10N]	2.34
FHALVREIRGKEKEAVLAMEKKSK [R10G]	2.06
FHALVREIRCKEKEAVLAMEKKSK [R10C]	2.7
FHALVREIRIKEKEAVLAMEKKSK [R10I]	2.61
FHALVREIRLKEKEAVLAMEKKSK [R10L]	1.55
FHALVREIRKKEKEAVLAMEKKSK [R10K]	1.33
FHALVREIRPKEKEAVLAMEKKSK [R10P]	2.31
FHALVREIREKEKEAVLAMEKKSK [R10E]	1.7

Variant	protein stability index
FHALVREIRYKEKEAVLAMEKKSK [R10Y]	1.82
FHALVREIRTKEKEAVLAMEKKSK [R10T]	2.09
FHALVREIRRKEKELVLAMEKKSK [A15L]	1.63
FHALVREIRRKEKECVLAMEKKSK [A15C]	2.1
FHALVREIRRKEKERVLAMEKKSK [A15R]	1.72
FHALVREIRRKEKEKVLAMEKKSK [A15K]	2.72
FHALVREIRRKEKEFVLAMEKKSK [A15F]	1.91
FHALVREIRRKEKESVLAMEKKSK [A15S]	2.52
FHALVREIRRKEKEVVLAMEKKSK [A15V]	2.4
FHALVREIRRKEKEYVLAMEKKSK [A15Y]	2.12
FHALVREIRRKEKEHVLAMEKKSK [A15H]	2.28
FHALVREIRRKEKENVLAMEKKSK [A15N]	1.81
FHALVREIRRKEKEEVLAMEKKSK [A15E]	1.58
FHALVREIRRKEKETVLAMEKKSK [A15T]	2.18
FHALVREIRRKEKEMVLAMEKKSK [A15M]	2.17
FHALVREIRRKEKEWVLAMEKKSK [A15W]	2.02
FHALVREIRRKEKEQVLAMEKKSK [A15Q]	2.19
FHALVREIRRKEKEDVLAMEKKSK [A15D]	2.3
FHALVREIRRKEKEIVLAMEKKSK [A15I]	2.05
FHALVREIRRKEKEGVLAMEKKSK [A15G]	1.91
FHALVREIRRKEKEPVLAMEKKSK [A15P]	2.9
FHALVREIRRKEKQAVLAMEKKSK [E14Q]	1.55
FHALVREIRRKEKPAVLAMEKKSK [E14P]	1.73
FHALVREIRRKEKIAVLAMEKKSK [E14I]	1.85

Variant	protein stability index
FHALVREIRRKEKNAVLAMEKKSK [E14N]	1.62
FHALVREIRRKEKCAVLAMEKKSK [E14C]	1.58
FHALVREIRRKEKKAVLAMEKKSK [E14K]	2.89
FHALVREIRRKEKYAVLAMEKKSK [E14Y]	2.17
FHALVREIRRKEKDAVLAMEKKSK [E14D]	1.41
FHALVREIRRKEKMAVLAMEKKSK [E14M]	2.1
FHALVREIRRKEKWAVLAMEKKSK [E14W]	2.42
FHALVREIRRKEKAAVLAMEKKSK [E14A]	2.29
FHALVREIRRKEKVAVLAMEKKSK [E14V]	1.9
FHALVREIRRKEKTAVLAMEKKSK [E14T]	1.93
FHALVREIRRKEKGAVLAMEKKSK [E14G]	1.39
FHALVREIRRKEKFAVLAMEKKSK [E14F]	2.15
FHALVREIRRKEKSAVLAMEKKSK [E14S]	1.8
FHALVREIRRKEKRAVLAMEKKSK [E14R]	1.84
FHALVREIRRKEKHAVLAMEKKSK [E14H]	1.96
FHALVREIRRKEKEAVLRMEKKSK [A18R]	2.11
FHALVREIRRKEKEAVLQMEKKSK [A18Q]	1.95
FHALVREIRRKEKEAVLHMEKKSK [A18H]	2.85
FHALVREIRRKEKEAVLTMEKKSK [A18T]	1.91
FHALVREIRRKEKEAVLLMEKKSK [A18L]	1.66
FHALVREIRRKEKEAVLDMEKKSK [A18D]	1.96
FHALVREIRRKEKEAVLSMEKKSK [A18S]	2.26
FHALVREIRRKEKEAVLIMEKKSK [A18I]	1.69
FHALVREIRRKEKEAVLNMEKKSK [A18N]	3.42

Variant	protein stability index
FHALVREIRRKEKEAVLWMEKKSK [A18W]	1.68
FHALVREIRRKEKEAVLEMEKKSK [A18E]	1.22
FHALVREIRRKEKEAVLCMEKKSK [A18C]	1.89
FHALVREIRRKEKEAVLGMEKKSK [A18G]	1.71
FHALVREIRRKEKEAVLVMEKKSK [A18V]	1.84
FHALVREIRRKEKEAVLKMEKKSK [A18K]	2.5
FHALVREIRRKEKEAVLPMEKKSK [A18P]	1.23
FHALVREIRRKEKEAVLYMEKKSK [A18Y]	1.18
FHALVREIRRKEKEAVLMMEKKSK [A18M]	2.08
FHALVREIRRKEKEAVLFMEKKSK [A18F]	2.15
FHALVREIRRKIKEAVLAMEKKSK [E12I]	3.76
FHALVREIRRKSKEAVLAMEKKSK [E12S]	3
FHALVREIRRKMKEAVLAMEKKSK [E12M]	3.96
FHALVREIRRKGKEAVLAMEKKSK [E12G]	2.28
FHALVREIRRKDKEAVLAMEKKSK [E12D]	2.13
FHALVREIRRKCKEAVLAMEKKSK [E12C]	1.81
FHALVREIRRKQKEAVLAMEKKSK [E12Q]	1.89
FHALVREIRRKTKEAVLAMEKKSK [E12T]	2.42
FHALVREIRRKRKEAVLAMEKKSK [E12R]	2.06
FHALVREIRRKFKEAVLAMEKKSK [E12F]	1.64
FHALVREIRRKHKEAVLAMEKKSK [E12H]	2.05
FHALVREIRRKVKEAVLAMEKKSK [E12V]	2.48
FHALVREIRRKAKEAVLAMEKKSK [E12A]	3.79
FHALVREIRRKNKEAVLAMEKKSK [E12N]	2.45

Variant	protein stability index
FHALVREIRRKKKEAVLAMEKKSK [E12K]	2.03
FHALVREIRRKLKEAVLAMEKKSK [E12L]	1.81
FHALVREIRRKYKEAVLAMEKKSK [E12Y]	2.69
FHALVREIRRKEKEAVPAMEKKSK [L17P]	1.77
FHALVREIRRKEKEAVGAMEKKSK [L17G]	1.7
FHALVREIRRKEKEAVNAMEKKSK [L17N]	2.18
FHALVREIRRKEKEAVWAMEKKSK [L17W]	1.7
FHALVREIRRKEKEAVKAMEKKSK [L17K]	1.97
FHALVREIRRKEKEAVRAMEKKSK [L17R]	1.9
FHALVREIRRKEKEAVCAMEKKSK [L17C]	2.16
FHALVREIRRKEKEAVYAMEKKSK [L17Y]	2.05
FHALVREIRRKEKEAVAAMEKKSK [L17A]	1.85
FHALVREIRRKEKEAVMAMEKKSK [L17M]	1.86
FHALVREIRRKEKEAVDAMEKKSK [L17D]	1.51
FHALVREIRRKEKEAVEAMEKKSK [L17E]	2.09
FHALVREIRRKEKEAVHAMEKKSK [L17H]	2.11
FHALVREIRRKEKEAVTAMEKKSK [L17T]	2.21
FHALVREIRRKEKEAVQAMEKKSK [L17Q]	1.88
FHALVREIRRKEKEAVVAMEKKSK [L17V]	1.47
FHALVREIRRKEKEAVFAMEKKSK [L17F]	2.12
FHALVREIRRKEKEAVSAMEKKSK [L17S]	1.88
FHALVREIRRKEKEAVIAMEKKSK [L17I]	2.1
FHALVREIRRIEKEAVLAMEKKSK [K11I]	1.55
FHALVREIRRWEKEAVLAMEKKSK [K11W]	2.11

Variant	protein stability index
FHALVREIRRREKEAVLAMEKKSK [K11R]	1.55
FHALVREIRRDEKEAVLAMEKKSK [K11D]	1.39
FHALVREIRRVEKEAVLAMEKKSK [K11V]	1.99
FHALVREIRRTEKEAVLAMEKKSK [K11T]	2.19
FHALVREIRRFEKEAVLAMEKKSK [K11F]	1.95
FHALVREIRRAEKEAVLAMEKKSK [K11A]	1.47
FHALVREIRRPEKEAVLAMEKKSK [K11P]	2.46
FHALVREIRREEKEAVLAMEKKSK [K11E]	2.07
FHALVREIRRMEKEAVLAMEKKSK [K11M]	2.69
FHALVREIRRGEKEAVLAMEKKSK [K11G]	2
FHALVREIRRQEKEAVLAMEKKSK [K11Q]	2.47
FHALVREIRRNEKEAVLAMEKKSK [K11N]	1.45
FHALVREIRRCEKEAVLAMEKKSK [K11C]	2.28
FHALVREIRRLEKEAVLAMEKKSK [K11L]	2.16
FHALVREIRRHEKEAVLAMEKKSK [K11H]	2.05
FHALVREIRRYEKEAVLAMEKKSK [K11Y]	1.64
FHALVREIRRSEKEAVLAMEKKSK [K11S]	1.58
FHALVREIRRKEIEAVLAMEKKSK [K13I]	3.75
FHALVREIRRKEFEAVLAMEKKSK [K13F]	2.27
FHALVREIRRKETEAVLAMEKKSK [K13T]	1.77
FHALVREIRRKEGEAVLAMEKKSK [K13G]	1.37
FHALVREIRRKEAEAVLAMEKKSK [K13A]	2.04
FHALVREIRRKENEAVLAMEKKSK [K13N]	2.02
FHALVREIRRKECEAVLAMEKKSK [K13C]	2.01

Variant	protein stability index
FHALVREIRRKESEAVLAMEKKSK [K13S]	2.42
FHALVREIRRKEYEAVLAMEKKSK [K13Y]	1.81
FHALVREIRRKEDEAVLAMEKKSK [K13D]	1.56
FHALVREIRRKEQEAVLAMEKKSK [K13Q]	2.58
FHALVREIRRKEEEAVLAMEKKSK [K13E]	1.08
FHALVREIRRKEPEAVLAMEKKSK [K13P]	2.32
FHALVREIRRKEMEAVLAMEKKSK [K13M]	1.5
FHALVREIRRKELEAVLAMEKKSK [K13L]	3.67
FHALVREIRRKEVEAVLAMEKKSK [K13V]	1.26
FHALVREIRRKEWEAVLAMEKKSK [K13W]	1.95
FHALVREIRRKEHEAVLAMEKKSK [K13H]	2.38
FHALVREIRRKEREAVLAMEKKSK [K13R]	1.67
FHALVREIRRKEKEAVLAKEKKSK [M19K]	2.17
FHALVREIRRKEKEAVLAHEKKSK [M19H]	1.35
FHALVREIRRKEKEAVLAEEKKSK [M19E]	1.88
FHALVREIRRKEKEAVLADEKKSK [M19D]	2.04
FHALVREIRRKEKEAVLAAEKKSK [M19A]	1.68
FHALVREIRRKEKEAVLAFEKKSK [M19F]	2.23
FHALVREIRRKEKEAVLAIEKKSK [M19I]	1.24
FHALVREIRRKEKEAVLAGEKKSK [M19G]	2.23
